Data from patent US20120277143A1 (Janssen / Centocor, published 2012).
One block for each binder: values may come before it.

What was measured:
[1] = target: T1, human IL13 (human, UniProt P35225 35-146, biotinylated in the SPR assays (sites not given)); assay: cell-based or functional assay
[2] = target: T2, human IL4 (human, UniProt P05112 25-153, biotinylated in the SPR and competition assays (sites not given)); assay: cell-based or functional assay
T2 sequence: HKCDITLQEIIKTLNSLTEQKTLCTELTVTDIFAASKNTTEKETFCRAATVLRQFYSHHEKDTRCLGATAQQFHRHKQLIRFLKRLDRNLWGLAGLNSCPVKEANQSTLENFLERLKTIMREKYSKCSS

[3] = target: T2, human IL4; assay: Affinity to IL4; method not re-described
[4] = target: T1, human IL13; assay: Affinity to IL13; method not re-described
[5] = target: T2, human IL4; assay: IL4R binding inhibition; repeats Table 17
Method: AR protein inhibition of IL4 binding to IL4 RA was assessed using IL4 RA-Fc (R&D Systems), comprising the Gly24-His232 which represents the ECD (SEQ ID NO: 5) fused to a human IgGl-Fc and therefor a disulfide linked homodimer. The protein was conjugated to carboxylated Luminex microspheres according to the manufacturer's protocol. For neutralization experiments, 5000 IL4RA-Fc conjugated beads in 50 μl were added to each well of a 96-well filter plate (Millipore). Biotinylated human IL4 was mixed with an appropriate dilution of AR protein in Luminex Assay Buffer (PBS, 1% BSA, pH 7.4) to give a final concentration of 67 pM IL4. The plate was incubated for 1 hour at RT in the dark on a plate shaker, set to shake vigorously to avoid bead aggregation. The plate was washed twice with 150 μl of wash buffer (PBS, 0.1% BSA, pH 7.4, 0.05% Tween-20) using a vacuum manifold followed by the addition of 50 μl of Streptavidin PE at 25 μg/ml and incubated at RT for 20 minutes. The plates were washed again and 150 μl of sheath fluid was added and the plate was placed on the shaker for 5 minute. Plates were read using a Luminex® 100 system; data were plotted as a function of AR protein concentration. IC₅₀ values were determined by fitting the data to the equation for sigmoidal dose response using PRISM software (GraphPAD PRISM) (Table 6).

[6] = target: T3, human IL13 R130Q (human, UniProt P35225 35-146, biotinylated (sites not given)); assay: IL13Ra2 binding inhibition; repeats Table 17
T3 construct: Peprotech; also called IL13R13Q; R111Q
Method: (§1) Binding protein inhibition of IL13 binding to Rα2 was assessed using IL13Rα2-Fc (R&D Systems) conjugated to carboxylated Luminex microspheres according to the manufacturer's protocol. For biotinylation of IL13, recombinant human IL13 R130Q (Peprotech) was biotinylated at a 4:1 ratio using EZ-Link NHS-LC-Biotin (Pierce, #21336) for 2 hours at RT. The protein was dialyzed in PBS overnight to remove excess biotinylation reagent. For neutralization experiments, 5000 IL13 Rα2-Fc conjugated beads in 50 μl were added to each well of a 96-well filter plate (Millipore). 50 μl of biotinylated human IL13 at 1 ng/ml (80 pM) was mixed with an appropriate dilution of binding protein in Luminex Assay Buffer (PBS, 1% BSA, pH 7.4). The plate was incubated for 1 hour at RT in the dark on a plate shaker, set to shake vigorously to avoid bead aggregation. The plate was washed 3 times with 150 μl of wash buffer (PBS, 1% BSA, pH 7.4, 0.05% Tween-20) using a vacuum manifold followed by the addition of 50 μl of Streptavidin PE at 25 μg/ml and incubated at RT for 20 minutes. The plates were washed again and 100 μl of sheath fluid was added and the plate was placed on the shaker for 1 minute. Plates were read using a Luminex® 100 system; data were plotted as a function of binding protein concentration. IC₅₀ values were determined by fitting the data to the equation for sigmoidal dose response using PRIZM software (GraphPAD PRIZM).

[7] = target: T2, human IL4; assay: IL4RA binding inhibition; assay not re-described (Luminex of Example 2)
[8] = target: T3, human IL13 R130Q; assay: IL13Ra2 binding inhibition; assay not re-described (Luminex of Example 2)
Method: as §1

[9] = target: T2, human IL4; assay: cell-based or functional assay; remark: listed apart in the source
[10] = target: T2, human IL4; assay: binding to recombinant IL4; kinetic method not restated
[11] = target: T1, human IL13; assay: cell-based or functional assay; remark: listed apart in the source
[12] = target: cyno IL13 (cynomolgus monkey, UniProt Q0PW92 21-132); assay: cell-based or functional assay
[13] = target: T1, human IL13; assay: cell-based or functional assay; remark: listed apart in the source
[14] = target: T1, human IL13; assay: SPR BIAcore, biotin-IL13 on SA chip, global fit
Method: Recombinant human IL13 (Peprotech) was minimally biotinylated on ice using sulfo-NHS-LCLC-Biotin and desalted into the experimental running buffer containing 10 mM HEPES, 150 mM NaCl, pH 7.4, 0.01% Tween-20, and 0.1 mg/mL BSA. Biotinylated IL13 was captured at three different surface densities (from about 150, 50, and 25 RU) onto three different BIAcore SA (streptavidin) sensor chips. Each binding protein sample was tested at 40 nM as the highest concentration in a 3-fold dilution series over the three different density IL13 surfaces. The dissociation phase for the highest concentration of the binding protein sample was monitored for one hour. The response data from each of the different density surfaces was globally fitted in order to extract estimates of the kinetic and affinity constants which are provided in Table 7 below.

[15] = target: T1, human IL13; assay: SPR ProteOn, biotin-hIL13 on streptavidin, 1:1 global fit
Method: Complete kinetic data describing binding of various engineered binding protein molecules to human IL13 was measured using a method similar to that described above for the single point affinity analysis. Briefly, streptavidin (Pierce) was immobilized to similar levels (˜1800 RUs) on all six channels of a ProteOn GLC chip via amine coupling (pH 5.0). Biotinylated hIL13 was captured at different surface densities (600˜100 RUs) on different channels. Protein binding was tested starting at 40 nM diluted in a 3-fold concentration series over the different density IL13 surfaces; a buffer sample was injected to monitor the baseline stability. Dissociation phases for all concentrations of each binding protein sample were monitored for one hour at a flow rate of 100 μl/min. Response data for all concentration series from the different density surfaces were globally fit to a 1:1 simple langmuir binding model to extract values of the kinetic (kₒₙ, koff) and affinity (KD) constants provided in Table 16.

[16] = target: T3, human IL13 R130Q; assay: Luminex competition, 80 pM biotin-IL13 R130Q binding to IL13Ra2-Fc beads
Method: as §1

T3 sequence (P35225 35-146 limits assumed, stated change not applied): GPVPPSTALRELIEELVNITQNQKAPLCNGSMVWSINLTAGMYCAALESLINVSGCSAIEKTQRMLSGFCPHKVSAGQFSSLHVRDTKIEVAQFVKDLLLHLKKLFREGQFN
T1 sequence (P35225 other isoform, or with tags, fused parts or gaps limits assumed): as the sequence (P35225 35-146 limits assumed, stated change not applied) above, with Q110R counted along it
Chain of cyno IL13 (Q0PW92 entry or part of it): as the sequence (P35225 35-146 limits assumed, stated change not applied) above, with G1S, R10K, M42V, S67N, H83R, L100V counted along it

A549/TARC IL13 IC50 [1]: 92 pM
HEK Stat6 human IL13 IC50 [1]: 19 pM
A549/TARC IL4 IC50 [2]: 33 pM
HEK stat6 hIL4 IC50 [2]: 2 pM
Ramos Assay IC50 [2]: 6.9 pM
Kd [3]: 3.1 pM
Kd [4]: 0.0166 nM
IC50 [5]: 0.024 nM
IC50 [6]: 0.032 nM
IC50 [7]: 0.024 nM
IC50 [8]: 0.032 nM
B1: C01_6G9_V1_C06_28E5_V1 (designed binder)
chain: DLDKKLLEAARAGQDDEVRILMANGADVNARDSYGSTPLHLAAREGHLEIVEVLLKYGADVNAADFIGDTPLHLAAYRGHLEIVEVLLKYGADVNASDITGETPLHLAAQIGHLEIVEVLLKHGADVNAQDKFGKTAFDISIDNGNEDLAEILQKLGGGGSGGGGSGGGGSGGGGSRSDLGKKLLEAARAGQDDEVRILMANGADVNAADDSGITPLHLAAEDGHLEIVEVLLKAGADVNAQDNLGDTPLHLAAWTGHLEIVEVLLKAGADVNAYDISGITPLHLAAFYGHLEIVEVLLKHGADVNAQDKFGKTAFDISIDNGNEDLAEILQKLN
notes: bispecific IL13/IL4 ankyrin repeat protein with (GGGGS)4 linker; also called bispecific AR protein

IC50 STAT6 [9]: 3.1 pM
Kd [10]: 8.38 pM
B2: C06_28E5v1 (designed binder)
chain: DLGKKLLEAARAGQDDEVRILMANGADVNAADDSGITPLHLAAEDGHLEIVEVLLKAGADVNAQDNLGDTPLHLAAWTGHLEIVEVLLKAGADVNAYDISGITPLHLAAFYGHLEIVEVLLKHGADVNAQDKFGKTAFDISIDNGNEDLAEILQKLN

STAT6 Phospho IC50 [11]: 2.5 pM
TARC expression IC50 [11]: 19.6 pM
Cyno IL13 STAT6 IC50 [12]: 98 pM
HEK STAT6 IC50 [13]: 2.5 pM
Kd [14]: 0.0328 nM
koff [14]: 5.3e-05 s⁻¹
kon [14]: 1.62e+06 M⁻¹ s⁻¹
Kd [15]: 0.0168 nM
IC50 [16]: 0.0034 nM
B3: 7G11 (designed binder)
chain: DLGKKLLEAARAGQDDEVRILMANGADVNATDEFDSTPLHLAARHGHLEIVEVLLKYGADVNAADFIGDTPLHLAAYRGHLEIVEVLLKCGVDVNADDHGDTPLHLAASMGHLEIVEVLLKNGADVNAQDKFGKTAFDISIDNGNEDLAEILQKLN
notes: ankyrin repeat protein

HEK STAT6 IC50 [13]: 85 pM
Kd [15]: 0.0242 nM
B4: 7G11r7 (designed binder)
chain: GLDKKLLEAARAGQDDEVRILMANGADVNATDEFDSTPLHLAARHGHLEIVEVLLKYGADVNAADFIGDTPLHLAAYRGHLEIVEVLLKYGVDVNADDHGDTPLHLAASTGHLEIVEVLLKHGADVNAQDKFGKTAFDISIDNGNEDLAEILQKAA
notes: optimized 7G11; expressed without HIS tag

HEK STAT6 IC50 [13]: 202 pM
Kd [15]: 0.0656 nM
B5: 9F8r3 (designed binder)
chain: GLDKKLLEAARAGQDDEVRILMANGADVNASDIFGSTPLHLAARHGHLEIVEVLLKYGADVNAFDFIGDTPLHLAAYRGHLEIVEVLLKYGVDVNADDHGDTPLHLAAQIGHLEIVEVLLKHGADVNAQDKFGKTAFDISIDNGNEDLAEILQKAA
notes: optimized 9F8; expressed without HIS tag

STAT6 Phospho IC50 [11]: 17.4 pM
TARC expression IC50 [11]: 64 pM
Cyno IL13 STAT6 IC50 [12]: 96.4 pM
HEK STAT6 IC50 [13]: 17.4 pM
Kd [14]: 0.0577 nM
koff [14]: 5.74e-05 s⁻¹
kon [14]: 995000 M⁻¹ s⁻¹
Kd [15]: 0.0249 nM
IC50 [16]: 0.031 nM
B6: IL13 binding protein 6G9 (designed binder)
chain: DLGKKLLEAARAGQDDEVRILMANGADVNARDSYGSTPLHLAAREGHLEIVEVLLKYGADVNAKDMIGDTPLHLAAYRGHLEIVEVLLKNGADVNASDITGETPLHLAAQIGHLEIVEVLLKYGADVNAQDKFGKTAFDISIDNGNEDLAEILQKLN

HEK STAT6 IC50 [13]: 5.6 pM
Kd [15]: 0.0251 nM
B7: 6G9r13 (designed binder)
chain: ALDKKLLEAARAGQDDEVRILMANGADVNARDSYGSTPLHLAAREGHLEIVEVLLKYGADVNAADFIGDTPLHLAAYRGHLEIVEVLLKYGADVNASDITGETPLHLAAQIGHLEIVEVLLKHGADVNAQDKFGKTAFDISIDNGNEDLAEILQKAA
notes: optimized 6G9; expressed without HIS tag

IC50 STAT6 [9]: 1.4 pM
Kd [10]: 1.8 pM
B8: C06_53G6v1 (designed binder)
chain: DLGKKLLEAARAGQDDEVRILMANGADVNATDDWGDTLLHLAATDGHLEIVEVLLKAGADVNANDAIGDTPLHLAALYGHLEIVEVLLKYGADVNATDLHGFTPLHLAAFWGHLEIVEVLLKHGADVNAQDKFGKTAFDISIDNGNEDLAEILQKLN

A549/TARC IL13 IC50 [1]: 131 pM
HEK Stat6 human IL13 IC50 [1]: 27 pM
A549/TARC IL4 IC50 [2]: 50 pM
HEK stat6 hIL4 IC50 [2]: 3.9 pM
Ramos Assay IC50 [2]: 8 pM
Kd [3]: 10.9 pM
Kd [4]: 0.0384 nM
IC50 [5]: 0.034 nM
IC50 [6]: 0.199 nM
IC50 [7]: 0.034 nM
IC50 [8]: 0.199 nM
B9: C06_53G6_V1_C01_6G9_V1 (designed binder)
chain: DLGKKLLEAARAGQDDEVRILMANGADVNATDDWGDTLLHLAATDGHLEIVEVLLKAGADVNANDAIGDTPLHLAALYGHLEIVEVLLKYGADVNATDLHGFTPLHLAAFWGHLEIVEVLLKHGADVNAQDKFGKTAFDISIDNGNEDLAEILQKLNGGGGSGGGGSGGGGSGGGGSDLDKKLLEAARAGQDDEVRILMANGADVNARDSYGSTPLHLAAREGHLEIVEVLLKYGADVNAADFIGDTPLHLAAYRGHLEIVEVLLKYGADVNASDITGETPLHLAAQIGHLEIVEVLLKHGADVNAQDKFGKTAFDISIDNGNEDLAEILQKLN
notes: bispecific IL4/IL13 ankyrin repeat protein with (GGGGS)4 linker; also called bispecific AR protein
